Experimental data published in patent US20250368735A1 (AKESO BIOPHARMA, published 2025).
Each block holds one binder with its values, some of them ahead of it.

How the values were obtained:
[1] = molecular target: T1, CD47 IgV TEV-His (human, UniProt Q08722 19-141); experiment: indirect ELISA screening with CD47 IgV TEV-His as antigen
T1 construct: range 19-141; also called human CD47 IgV TEV-His; not shown: his tag

[2] = molecular target: T2, human CLDN18.2 (ELISA coating antigen) (human, UniProt P56856-2 1-261, limits assumed); experiment: indirect ELISA, coated human CLDN18.2 2 µg/mL
T2 construct: also called antigen human CLDN18.2
Experimental: After blocking, the ELISA plate was washed 3 times with PBST. The ELISA plate containing the test antibodies was incubated at 37° C. for 30 min and then washed 3 times with PBST. […] The ELISA plate was put into a microplate reader immediately, and the OD value of each well in the ELISA plate was read at 450 nm. The data were analyzed and processed by SoftMax Pro 6.2.1.

[3] = molecular target: T3, CD47 on the cell membrane surface (CHO-K1-CLDN18.2-CD47 cells, 3T3-CD47 cells, human red blood cells, human T … (human, UniProt Q08722 19-323)); experiment: flow cytometry (FACS) on CHO-K1-CLDN18.2-CD47 cells, PE anti-human IgG Fc
T3 construct: whole, on cells; blood cells came from healthy human volunteers; also called cell membrane surface antigen CD47
Experimental: CHO-K1-CLDN18.2-CD47 cells (CHO-K1 cells overexpress CLDN18.2 and CD47 antigens, and are obtained from Cell Resource Center, Institute of Basic Medical Sciences, Chinese Academy of Medical Sciences) in the logarithmic growth phase were collected, and were transferred to a V-bottomed 96-well plate at 1×10⁵ cells/well. 100 μL of 1% PBSA (PBS+1% BSA) was added, and the mixture was centrifuged at 1000×g for 5 min, followed by removal of the supernatant. […] The mixture was mixed gently and well, and then incubated on ice for 40 min. 150 μL of 1% PBSA was added to each well, and the mixture was centrifuged at 1000×g for 5 min. The supernatant was discarded, and the plate was further washed three times at 200 μL/time. […] The diluted antibody was added to corresponding samples at 100 μL/well, and the cell pellet was resuspended and incubated on ice in the dark for 0.5 h. 150 μL of 1% PBSA was added to each well, and the mixture was centrifuged at 1000 g for 5 min, followed by removal of the supernatant. Then the plate was washed twice with 200 μL of 1% PBSA. 200 μL of 1% PBSA was added to each well to resuspend the cell pellet, and the mixture was transferred to a flow cytometry tube. FACS Calibur assay was performed, and the binding activity was analyzed.

[4] = molecular target: T1, CD47 IgV TEV-His; experiment: indirect ELISA, coated CD47-Igv-TEV-his 2 µg/mL
Experimental: After blocking, the ELISA plate was washed 3 times with PBST. The ELISA plate containing the test antibodies was incubated at 37° C. for 30 min and then washed 3 times with PBST. […] The data were analyzed and processed by SoftMax Pro 6.2.1.

[5] = molecular target: T4, CD47 ECD-His (human, UniProt Q08722 19-141, limits assumed); experiment: BLI (Fortebio Octet), antibody on AHC sensor, CD47 ECD-His 4.94-400 nM, 1:1 fit
T4 construct: extracellular domain; also called human CD47 ECD-His; not shown: His tag
Experimental: The affinity constant of the antibody for human CLDN18.2 and CD47 ECD-His was determined using a Fortebio Octer molecular interaction instrument. The sample dilution buffer was PBS (0.02% Tween-20, 0.1% BSA, pH 7.4). The method for detecting the affinity of the antibody for human CLDN18.2 is as follows. The antibody at 20 nM was immobilized on an AHC sensor for 60 s. The sensor was equilibrated in a buffer for 60 s, and the binding of the immobilized antibody on the sensor to CLDN18.2 His at concentrations of 6.25-100 nM (two-fold dilution) was determined for 180 s. The protein was dissociated in the buffer for 360 s. The method for detecting the affinity of the antibody to human CD47 ECD-His is as follows. The antibody at 30 nM was immobilized on an AHC sensor for 120 s. The sensor was equilibrated in a buffer for 60 s, and the binding of the immobilized antibody on the sensor to the protein CD47 ECD-His at concentrations of 4.94-400 nM (three-fold dilution) was determined for 50 s. The protein was dissociated in the buffer for 120 s. The shaking speed of the sample plate was 1000 rpm, the temperature was 30° C., and the frequency was 5.0 Hz. The data were analyzed by 1:1 model fitting to obtain affinity constants. The data acquisition software was Fortebio Data Acquisition 12.0, and the data analysis software was Fortebio Data Analysis HT 12.0.

[6] = molecular target: T3, CD47 on the cell membrane surface …; experiment: competitive flow cytometry on CHO-K1-CLDN18.2-CD47 cells; competitor hSIRPaV2-hFc-mFc at 3 nM
Experimental: 100 μL of 1% PBSA was then added to each well, and the mixture was centrifuged and washed.

[7] = molecular target: T5, CLDN18.2 on the cell membrane surface (CHO-K1-CLDN18.2 cells, CHO-K1-CLDN18.2-CD47 cells, CHO-K1-hClaudin18.2 … (human, UniProt P56856-2 1-261)); experiment: indirect ELISA screening with CHO-K1-hClaudin18.2 cells as antigen
T5 construct: whole, on cells; also called human Claudin18.2

B2: IMAB362 (antibody, V domains shown)
VH: QVQLQQPGAELVRPGASVKLSCKASGYTFTSYWINWVKQRPGQGLEWIGNIYPSDSYTNYNQKFKDKATLTVDKSSSTAYMQLSSPTSEDSAVYYCTRSWRGNSFDYWGQGTTLTVSS
VL: DIVMTQSPSSLTVTAGEKVTMSCKSSQSLLNSGNQKNYLTWYQQKPGQPPKLLIYWASTRESGVPDRFTGSGSGTDFTLTISSVQAEDLAVYYCQNDYSYPFTFGSGTKLEIKR
EC50 [2]: 0.014 nM

B3: 6F7H1L1(hG4) (antibody, V domains shown)
VH: QVQLVQSGAEVVKPGASVKLSCKASGYTFTSYWMNWVRQRPGQGLEWIGMIDPSDSETHNAQKFQGKATLTVDKSTSTAYMHLSSLRSEDTAVYYCARLYRWYFDVWGAGTTVTVSS
VL: NIVMTQSPATMSMSPGERVTLSCRASEIVGTYVSWFQQKPGQAPRLLIYGASNRYTGVPARFSGSGSGTDFTLTISSVQPEDLADYHCGQSYNFPYTFGGGTKLEIKR
EC50 [3]: 1.29 nM
EC50 [4]: 0.012 nM
Kd [5]: 27.3 nM
koff [5]: 0.0142 s⁻¹
kon [5]: 519000 M⁻¹ s⁻¹
EC50 [6]: 5 nM

Results, then the binder that gave them:

binding result [1]: binds
B1: 6F7 (antibody, V domains shown)
VH: QVQLQQPGAELVRPGASVKLSCKASGYTFTSYWMNWVKQRPGQGLEWIGMIDPSDSETHNNQMFKDKATLTVDKSSNTAYMHLSSLTSEDSAVYHCARLYRWYFDVWGAGTTVTVSS
VL: NIVMTQSPKSMSMSLGERVTLSCKASEIVGTYVSWFQQKPHQSPKLLIYGASNRYTGVPDRFTGSGSATDFTLTISNVQAEDLADYHCGQSYNFPYTFGGGTKLEIK
notes: Mouse hybridoma antibody; also called anti-CD47 antibody 6F7; monoclonal antibody secreted by hybridoma cell line LT012

binding result [7]: binds
B4: 8C5.1 (antibody, V domains shown)
VH: EVQLVESGGGLVKPGGSLKLSCAASGFTFSNSAVSWVRQTPEKRLEWVATITSGVSYTYYLDSVRGRFTISRDNAKNTLYLQMSSLRSEDTAMYYCTRQFKGNALDYWGQGTSVTVSS
VL: DIVMTQSPSSLTVTAGEKVTMSCKSSQSLLNSGNQKNYLTWYQQKPGQPPKLLIYWASTRESGVPDRFTGSGSGTDFTLTINNFQAEDLAVYYCQNDYFYPLTFGAGTKLELK
notes: Mouse hybridoma antibody; also called anti-CLDN18.2 antibody 8C5.1; monoclonal antibody secreted by hybridoma cell line LT020
